# Literature values as cited in paper PMC8620506.
# pKd: −log10 of the molar value.
# Biological target: NS4B (Dengue virus) (UniProt P27909)
substance,measurement,value
NS4A (from UniProt P27909),pKd,7.30
